Results published in article PMC2999606.

Target: Flag-tagged chicken p53 (chicken) (UniProt P10360)
Chain of UniProt P10360 (P10360 whole entry): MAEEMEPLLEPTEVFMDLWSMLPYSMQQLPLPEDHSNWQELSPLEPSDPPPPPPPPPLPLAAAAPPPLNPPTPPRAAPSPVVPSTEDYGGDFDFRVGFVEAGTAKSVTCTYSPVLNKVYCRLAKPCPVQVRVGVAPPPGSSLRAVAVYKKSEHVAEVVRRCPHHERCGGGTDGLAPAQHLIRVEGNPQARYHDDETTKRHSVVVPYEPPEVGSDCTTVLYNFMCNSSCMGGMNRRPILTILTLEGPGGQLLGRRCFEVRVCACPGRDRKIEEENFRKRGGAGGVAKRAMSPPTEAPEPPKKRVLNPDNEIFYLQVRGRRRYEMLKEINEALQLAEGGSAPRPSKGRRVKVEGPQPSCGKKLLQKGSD

GFP-tagged Meq (natural protein)
p53-mediated apoptosis (TUNEL assay, percent of apoptotic cells) in CEFs co-transfected with Flag-p53 and Flag-Meq at 1:10 molar ratio; approximately 46% with Flag-p53 alone: 12 % of cells
